Assay results as given in patent CN101228187A (UNIV RAMOT, dated 2008).

Target: MAP-PrP, multiple antigen peptide presenting amino acids 144-153 of human prion protein (human)
Assay: ELISA (Fig. 9)

B1: F2 scFv (scFv)
scFv: VQLLESGGGLVQPGGSLRLSCAASGFTFSGYWMHWVRQAPGKGLEWVSEISGSGDSTHYGDSVKGRFTISRDNSKNTLYLQMNSLRAEDTAVYYCARGRNGSLDYWGQGTLVTVSSGSAGGGGSGGGGSGGGGSDIVLTQPPSASGTPGQRVTISCSGTSSNIGADYDVHWYQQLPGKAPKLLIYDNNKRPSGVSDRFSGSKSGTSASLAISGLRSEDEADYYCAAWDSSLSSVVFGGGTQLTV
notes: also called TAR1; scFv F2
B1: no binding.
